According to PMC3283691, “Low-Resolution Molecular Models Reveal the Oligomeric State of the PPAR and the Conformational Organization of Its Domains in Solution” (PLoS ONE, 2012):
Where “and” joins values, the source holds several entries; their conditions need not be identical. Equal values may be shown once.

Tests used:
[1] = target: T1, human PPARγ DBD-LBD (amino acids 101–468) (Homo sapiens (Human), UniProt P37231-2); assay: SEC, SAXS, H/D exchange MS
T1 chain: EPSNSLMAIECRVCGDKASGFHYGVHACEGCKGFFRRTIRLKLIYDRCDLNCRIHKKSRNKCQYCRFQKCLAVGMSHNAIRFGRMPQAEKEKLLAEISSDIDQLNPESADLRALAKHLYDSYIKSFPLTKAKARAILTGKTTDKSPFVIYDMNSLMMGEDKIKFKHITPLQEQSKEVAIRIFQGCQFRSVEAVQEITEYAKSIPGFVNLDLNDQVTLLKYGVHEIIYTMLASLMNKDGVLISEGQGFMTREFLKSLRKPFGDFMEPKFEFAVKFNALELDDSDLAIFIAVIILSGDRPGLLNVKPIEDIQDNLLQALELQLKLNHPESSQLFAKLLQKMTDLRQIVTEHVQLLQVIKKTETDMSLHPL

[2] = target: T2, human PPARγ LBD (amino acids 204–477) (human, UniProt P37231-2 204-477); assay: SEC; analytical gel filtration, Superdex 75 HR 10/30 (LBD constructs) or Superdex 200 HR 10/30 (DBD-LBD constructs); 20 mM Hepes-Na pH 8.0, 3 mM dithiothreitol, 200 mM NaCl, 5% glycerol; heterodimers formed from 20 mg/mL of each protein, 1:1 molar, 1 h at 4°C; RH from calibration standards; details: both partners purified
T2 construct: Cloned in pET28a(+); His-tag removed with thrombin; also called hPPARγ LBD; PPAR LBD
T2 sequence (looked up): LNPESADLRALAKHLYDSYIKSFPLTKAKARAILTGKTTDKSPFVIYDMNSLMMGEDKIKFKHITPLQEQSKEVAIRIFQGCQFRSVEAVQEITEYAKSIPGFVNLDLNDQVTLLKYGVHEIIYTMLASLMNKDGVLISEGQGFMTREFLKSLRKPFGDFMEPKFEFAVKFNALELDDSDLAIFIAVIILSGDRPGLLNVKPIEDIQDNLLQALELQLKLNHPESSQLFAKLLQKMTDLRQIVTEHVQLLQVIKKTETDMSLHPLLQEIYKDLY

[3] = target: T3, human PPARγ LBD (amino acids 204–477) (Homo sapiens (Human), UniProt P37231-2); assay: SEC, native PAGE, DLS, SAXS
T3 chain: T2 sequence (looked up)

[4] = target: the molecule itself; assay: native gel or EMSA; native polyacrylamide gel electrophoresis after gel filtration; RH from band mobility; hPPARγ LBD at 1 to 20 mg/mL
[5] = target: the molecule itself; assay: SEC; analytical gel filtration, Superdex 75 HR 10/30 (LBD constructs) or Superdex 200 HR 10/30 (DBD-LBD constructs); 20 mM Hepes-Na pH 8.0, 3 mM dithiothreitol, 200 mM NaCl, 5% glycerol; heterodimers formed from 20 mg/mL of each protein, 1:1 molar, 1 h at 4°C; RH from calibration standards
[6] = target: the molecule itself; assay: dynamic light scattering; DLS after gel filtration; hPPARγ LBD at different concentrations

B1: human RXRα DBD-LBD (amino acids 135–462) (protein)
chain: CAICGDRSSGKHYGVYSCEGCKGFFKRTVRKDLTYTCRDNKDCLIDKRQRNRCQYCRYQKCLAMGMKREAVQEERQRGKDRNENEVESTSSANEDMPVERILEAELAVEPKTETYVEANMGLNPSSPNDPVTNICQAADKQLFTLVEWAKRIPHFSELPLDDQVILLRAGWNELLIASFSHRSIAVKDGILLATGLHVHRNSAHSAGVGAIFDRVLTELVSKMRDMQMDKTELGCLRAIVLFNPDSKGLSNPAEVEALREKVYASLEAYCKHKYPEQPGRFAKLLLRLPALRSIGLKCLEHLFFFKLIGDTPIDTFLMEMLEAPHQMT
binding result [1]: binds

B2: human RXRα LBD (amino acids 225–462) (domain or fragment, UniProt P19793 225-462, looked up)
chain: SANEDMPVERILEAELAVEPKTETYVEANMGLNPSSPNDPVTNICQAADKQLFTLVEWAKRIPHFSELPLDDQVILLRAGWNELLIASFSHRSIAVKDGILLATGLHVHRNSAHSAGVGAIFDRVLTELVSKMRDMQMDKTELGCLRAIVLFNPDSKGLSNPAEVEALREKVYASLEAYCKHKYPEQPGRFAKLLLRLPALRSIGLKCLEHLFFFKLIGDTPIDTFLMEMLEAPHQMT
notes: Cloned in pET28a(+); also called hRXRα LBD
binding result [2]: binds
binding result [3]: binds
stoichiometry N [4]: 4 and 2
stoichiometry N [5]: 2 and 4
stoichiometry N [6]: 4 and 2
